Patent publication US20250382354A1

Tests used:
Test in all cases: peptide ELISA
[1] = target: SARS-CoV-2 HR2 peptide (SARS-CoV-2), P0DTC2
MHV HR2 peptide (MHV) = target: MHV HR2 peptide (MHV)
[2] = target: HKU9 HR2 peptide (HKU9), A3EXG6
[3] = target: HKU5 HR2 peptide (HKU5), A3EXD0
[4] = target: MERS FP peptide (MERS), K9N5Q8
[5] = target: OC43 FP peptide (OC43), P36334
[6] = target: SARS-CoV FP peptide (SARS-CoV), P59594
[7] = target: NL63 FP peptide (NL63), Q6Q1S2
[8] = target: SARS-CoV-2 FP peptide (SARS-CoV-2)
HKU1 FP peptide (HKU1) = target: HKU1 FP peptide (HKU1)
[9] = target: Hu_PDCoV FP peptide (Hu_PDCoV)
229E FP peptide (229E) = target: 229E FP peptide (229E)
[10] = target: CCoV_HuPn FP peptide (CCoV_HuPn)
[11] = target: HKU4 HR2 peptide (HKU4), A3EX94

Binder | EC50 [1] | EC50 (MHV HR2 peptide (MHV)) | EC50 [2] | EC50 [3] | EC50 [4] | EC50 [5] | EC50 [6] | EC50 [7] | EC50 [8] | EC50 (HKU1 FP peptide (HKU1)) | EC50 [9] | EC50 (229E FP peptide (229E)) | EC50 [10] | EC50 [11]
CV3-25 (antibody) chain 1: QVQLVESGAEVKKPGESLKISCKGSGYTFTRYWIGWVRQMPGKGLEWMGIIYPGDSDTRYSPSFQGHVTISADKSISTAYLQWNSLKASDTAMYYCARLPQYCSNGVCQRWFDPWGQGTLVTVSS chain 2: EIVLTQSPSSVSASVGDRVTITCRASQGISSWLAWYQQKPGKAPKLLIYAASSLQSGVPSRFSGSGSGTDFTLTISSLQPEDFATYYCQQGNSFPYTFGQGTNLEIK | 0.00968 µg/mL | 0.0239 µg/mL | 0.358 µg/mL | 1.57 µg/mL |  |  |  |  |  |  |  |  |  | 
fp.009 (antibody, V domains shown) VH: VQLVESGGGVVQPGTSLTLSCEASGFTFSNYAMHWVRQAPGKGLEWVAIISFDTRNKKFAGSVQGRFSISRDNAKNSIYLQMNNLRPEDTGIYYCARDVFLSDYDSRGFDRTRGGFDYWGQGTLVTVSS VL: EIVMTQSPATLSVSPGEKATLSCRASESVGSSLAWYQQKLGQAPRLLIYGASTRATGIPARFSGSGSGAEFTLTISSLQSEDFAIYYCQQYGDWPLLTFGGGTKVEIK |  |  |  |  | 0.0346 µg/mL | 0.026 µg/mL | 0.0251 µg/mL | 0.0214 µg/mL | 0.038 µg/mL | 0.0241 µg/mL | 0.0276 µg/mL | 0.0236 µg/mL | 0.021 µg/mL | 
hr2.094 (antibody, V domains shown) VH: EVQLVESGGGLVQPGGSLRLSCAASGFTFSTFWMTWVRQAPGKGLEWVANIKSDGSEKYYVDSVKGRFTISRDNAKNSLYLQMNSLRAEDTAVYYCATWFGLHWGQGTLVTVSS VL: DIVMTQSPDSLAVSLGERASINCKSSQTVLYSSNNKNYLAWYQQKPGQPPKLLIHWASTRDSGVPDRFSGSGSGTDFTLTISSLQAEDVAVYYCQQYHRIPWTFGRGTKVEIK | 0.0835 µg/mL | 0.0189 µg/mL | 0.227 µg/mL | 0.0192 µg/mL |  |  |  |  |  |  |  |  |  | 0.0157 µg/mL
